For the data set, the target named is Transferrin receptor (TfR) (Mus musculus) (UniProt Q62351). Nature of the data set: pulldown. Conditions: B = Bn-dU, unit not given.
Transferrin receptor (TfR) (Mus musculus), sequence (Q62351 89-763): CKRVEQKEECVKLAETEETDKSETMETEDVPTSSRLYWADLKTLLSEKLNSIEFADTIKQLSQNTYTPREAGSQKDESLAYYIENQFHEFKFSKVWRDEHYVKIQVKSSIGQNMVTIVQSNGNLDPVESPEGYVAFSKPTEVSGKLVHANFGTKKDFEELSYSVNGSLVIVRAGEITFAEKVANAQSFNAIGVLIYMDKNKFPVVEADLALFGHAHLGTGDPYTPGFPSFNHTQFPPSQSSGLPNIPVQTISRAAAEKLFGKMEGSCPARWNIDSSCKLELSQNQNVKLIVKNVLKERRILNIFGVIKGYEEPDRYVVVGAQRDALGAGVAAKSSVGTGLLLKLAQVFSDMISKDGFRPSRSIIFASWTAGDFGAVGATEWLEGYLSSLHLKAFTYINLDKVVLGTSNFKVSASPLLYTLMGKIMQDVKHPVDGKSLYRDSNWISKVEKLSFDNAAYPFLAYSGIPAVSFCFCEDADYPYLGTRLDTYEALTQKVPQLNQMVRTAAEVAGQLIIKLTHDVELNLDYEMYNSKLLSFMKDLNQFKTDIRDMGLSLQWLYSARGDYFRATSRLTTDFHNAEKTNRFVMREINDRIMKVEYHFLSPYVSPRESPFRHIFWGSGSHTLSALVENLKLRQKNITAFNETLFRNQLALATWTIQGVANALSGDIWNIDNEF

“GAATTCAAAAGTGTCGGTGATTTGCCTCGTCGCTCCAATGT [CMe 2]” returned a Kd (2'-OMe at C15 [Bn-dU: 4,5,12,14,18,21,22,23,27,30,34,39,41, 2'-OMe: 15], SB18, 5 mM MgCl2, 37 C) of 11.4. In the case of “GAATTCAAAAGTGTCGGTGATTTGCCTCGTCGCTCCAATGT [CMe 3]”, the Kd (2'-OMe at C25 [Bn-dU: 4,5,12,14,18,21,22,23,27,30,34,39,41, 2'-OMe: 25], SB18, 5 mM MgCl2, 37 C) was found to be 11.1. Consider “GAATTCAAAAGTGTCGGTGATTTGCCTCGTCGCTCCAATGT [CMe 4]”, for which the Kd (2'-OMe at C26 [Bn-dU: 4,5,12,14,18,21,22,23,27,30,34,39,41, 2'-OMe: 26], SB18, 5 mM MgCl2, 37 C) came to 6.94. In the case of “GAATTCAAAAGTGTCGGTGATTTGCCTCGTCGCTCCAATGT [CMe 7]”, the Kd (2'-OMe at C33 [Bn-dU at 4,5,12,14,18,21,22,23,27,30,34,39,41, 2'-OMe at C33], Table 11 ratio 3.36 (improved)) was determined as 0.363. For the setting “2'-OMe at C35 [Bn-dU at 4,5,12,14,18,21,22,23,27,30,34,39,41, 2'-OMe at C35], SB18, 5 mM MgCl2, 37 C”, “GAATTCAAAAGTGTCGGTGATTTGCCTCGTCGCTCCAATGT [CMe 8]” returned a Kd of 8.46.

Sequence “GAATTCAAAAGTGTCGGTGATTTGCCTCGTCGCTCCAATGT [CMe 9]” gave a Kd (2'-OMe at C36 [Bn-dU at 4,5,12,14,18,21,22,23,27,30,34,39,41, 2'-OMe at C36], SB18, 5 mM MgCl2, 37 C) of 7.66. Take “GAATTCAAAAGTGTCGGTGATTTGCCTCGTCGCTCCAATGT [GMe 2]”: the Kd (2'-OMe at G11 [Bn-dU: 4,5,12,14,18,21,22,23,27,30,34,39,41, 2'-OMe-G: 11], SB18, 5 mM MgCl2, 37 C) worked out at 9.67. Regarding “GAATTCAAAAGTGTCGGTGATTTGCCTCGTCGCTCCAATGT [GMe 4]”, the Kd (2'-OMe at G16 [Bn-dU: 4,5,12,14,18,21,22,23,27,30,34,39,41, 2'-OMe: 16], SB18, 5 mM MgCl2, 37 C) is 6.33.

In turn, “GAATTCAAAAGTGTCGGTGATTTGCCTCGTCGCTCCAATGT [GMe 8]” registered a Kd (2'-OMe at G29 [Bn-dU: 4,5,12,14,18,21,22,23,27,30,34,39,41, 2'-OMe: 29], SB18, 5 mM MgCl2, 37 C) of 5.39. “GAATTCAAAAGTGTCGGTGATTTGCCTCGTCGCTCCAATGU [UMe 13]”: the Kd (2'-OMe-U at 41 [Bn-dU: 4,5,12,14,18,21,22,23,27,30,34,39, 2'-OMe-U: 41], SB18, 5 mM MgCl2, 37 C) was determined as 22.8. Where the note is “2'-OMe-U at 39 [Bn-dU: 4,5,12,14,18,21,22,23,27,30,34,41, 2'-OMe-U: 39], SB18, 5 mM MgCl2, 37 C”, “GAATTCAAAAGTGTCGGTGATTTGCCTCGTCGCTCCAAUGT [UMe 12]” displayed a Kd of 28. Sequence “GAATTCAAAAGTGTCGGTGATTTGCCTCGTCGCUCCAATGT [UMe 11]” had a Kd (2'-OMe-U at 34 [Bn-dU: 4,5,12,14,18,21,22,23,27,30,39,41, 2'-OMe-U: 34], SB18, 5 mM MgCl2, 37 C) of 17.8. With “GAATTCAAAAGTGTCGGTGATTTGCCTCGUCGCTCCAATGT [UMe 10]”, for the setting “2'-OMe-U at 30 [Bn-dU: 4,5,12,14,18,21,22,23,27,34,39,41, 2'-OMe-U: 30], SB18, 5 mM MgCl2, 37 C”, the Kd amounted to 25.2. Regarding “GAATTCAAAAGTGTCGGTGATTTGCCUCGTCGCTCCAATGT [UMe 9]”, the Kd (2'-OMe-U at 27 [Bn-dU: 4,5,12,14,18,21,22,23,30,34,39,41, 2'-OMe-U: 27], SB18, 5 mM MgCl2, 37 C) was found to be 18.3. Turning to “GAATTCAAAAGTGTCGGTGATUTGCCTCGTCGCTCCAATGT [UMe 7]”, the Kd (2'-OMe-U at 22 [Bn-dU: 4,5,12,14,18,21,23,27,30,34,39,41, 2'-OMe-U: 22], Table 11 ratio 2.51 (improved)) was 1.84.

“GAATTCAAAAGTGUCGGTGATTTGCCTCGTCGCTCCAATGT [UMe 4]”: the Kd (2'-OMe-U at 14 [Bn-dU: 4,5,12,18,21,22,23,27,30,34,39,41, 2'-OMe-U: 14], Table 10 ratio 0.17) is 32.4. Regarding “GAATUCAAAAGTGTCGGTGATTTGCCTCGTCGCTCCAATGT [UMe 2]”, the Kd (2'-OMe-U at 5 [2'-OMe-U: 5, Bn-dU: 4,12,14,18,21,22,23,27,30,34,39,41], Table 10 ratio 0.10) stood at 56.4. Consider “GAAUTCAAAAGTGTCGGTGATTTGCCTCGTCGCTCCAATGT [UMe 1]”, for which the Kd (2'-OMe-U at 4 [2'-OMe-U: 4, Bn-dU: 5,12,14,18,21,22,23,27,30,34,39,41], Table 10 ratio 0.13) came out at 42.6.

Source of the values: patent US20230250438.
